Source: US20240279344A1 (CDR LIFE, published 2024)

Molecular target: T1, HLA-A2/MAGE-A4 complex, recombinant (HLA-A*02:01 extracellular domain, human b2m, MAGE-A4 peptide 230-239 …) (human, UniProt P04439 25-299 at identity 0.94); P61769 21-119)
T1 construct: also called MAGE-A4 pMHC; MAGE-A4/HLA-A2 complex
Experiment: phage display biopanning and screening

Row | Binder | binding result
1 | M0855 scFv (scFv, Rabbit scFv identified by phage display) scFv: QQQLEESGGGLVTPGTPLTLTCTVSGIDLSSYAMGWVRQAPGKGLEWIGTINDGGSAFYASWVKGRFTISRTSTTVDLKITSPTAEDTATYFCAKTYGTNGDVYWGYFNLWGQGTLVTISSGGGGSGGGGSGGGGSGGGGASELVMTQTPASVSEPVGGTVTIKCQASQSIGSNLAWYQQKPGQPPKLLIYYESILASGVPSRFSGSGSGTEYTLTISGAQADDAATYYCQQGYSSSNIDNAFGGGTEVVVK | binds
2 | M0856 scFv (scFv, Rabbit scFv identified by phage display) scFv: QQQLEESGGGLVTPGTPLTLTCTVSGIDLSSYAMGWVRQAPGKGLEWIGTINDGGSAFYASWVKGRFTISRTSTTVDLKITSPTAEDTATYFCAKTYGTNGDVYWGYFNLWGQGTLVTISSGGGGSGGGGSGGGGSGGGGASELVMTQTPASVSEPVGGTVTIKCQASQSIGSNLAWYQQKPGQPPKLLIYYESILASGVPSRFSGSGSGTEYTLTISGAQADDAATYYCQQGYSSSNILNAFGGGTEVVVK | binds
3 | M0854 scFv (scFv, Rabbit scFv identified by phage display) scFv: QSVKESWGRLVTPGGSLTLTCTVSGIDLNNYAMGWVRQAPGKGLEWIGTINNDGATYYPSWARGRFTISKTSTTVDLKITSPTTEDTATYFCARTYGSNGDVYWGYFNLWGQGTLVTVSSGGGGSGGGGSGGGGSGGGGASALELTQTPASVEVAVGGTVTINCQASQSIGGALNWYQQKSGQPPKLLIYLASTLASGVSSRFKGSGSGTQFTLTISGVEAADAATYYCQQGYSASNIDNAFGGGTEVVVK | binds
4 | M0857 scFv (scFv, Rabbit scFv identified by phage display) scFv: QQQLVESGGRLVTPGTPLTLTCTASGIDLNSNAMSWVRQGPGKGLEWIGDIWSGGYTDYASWAKGRFTISKTSTTVDLKMTSLTAADTATYFCARDRLAGDGVVDYDLWGQGTLVTISSGGGGSGGGGSGGGGSGGGGASELDMTQTPASVEVAVGGTVTIKCQASQNIYSNLAWYQQKPGQRPKLLIYGASTLASGVPSRFKGSGSGTEYTLTINGVQAADAATYYCQQGFSSSNVDNVFGGGTEVVVK | binds
5 | M0865 scFv (scFv, Rabbit scFv identified by phage display) scFv: PAALMESGGRLVTPGTPLTLTCTVSGIDLSTFAMTWVRQAPGKGLEWLGIINTGGSAYYTSWAKGRFTISRTSTTVDLKITSPTTEDTATYFCARGDWSSATDLWGQGTLVTISSGGGGSGGGGSGGGGSGGGGASDPDMTQTPSSVSAAVGGTVTINCQASQSVYDNKVLAWYRQKPGQPPKLLIYKASTLASGVPSRFKGRGSGTQFTLTISGVQADDAATYYCLGEFSCSSADCHAFGGGTELEIL | binds
6 | M0861 scFv (scFv, Rabbit scFv identified by phage display) scFv: QSVKESGGRLVTPGTPLTLTCTVSGFSLSNYAMSWVRQAPGKGLEYIGIVSSGGTTYYASWAKGRFTISKTSTTVDLKITSPTTEDTATYFCAKDLYYGPTTYSAFNLWGQGTLVTISSGGGGSGGGGSGGGGSGGGGASELVLTQPASVQVNLGQTVSLTCTADTLSRSYASWYQLKPGQAPVLLIYRDTSRPSGVPDRFSGSSSGNTATLTISGAQAGDEGDYVCATSDGSGSNFQLFGGGTQLTVTG | binds
7 | M0864 scFv (scFv, Rabbit scFv identified by phage display) scFv: QSVKESGGGLVTPGTPLTLTCTVSGFSLSTYAISWVRQAPGKGLEWIGFIDTVDSAYYASWAKGRFTISKTSSTTVDLKMTSPTTEDTATYFCAKLRYGDYGDYTLWGQGTLVTVSSGGGGSGGGGSGGGGSGGGGASELVMTQTPSPVSGAVGGTVTIKCQASQNIYSYLAWYQQKPGQPPKLLIYKASTLASGVPSRVKGSGSGTEYTLTISGVQAADAATYYCQCTYYDSNTFGGGTEVVVK | binds
8 | M0866 scFv (scFv, Rabbit scFv identified by phage display) scFv: QSVKESGGRLVTPGTPLTLTCTASGFTISSSAISWVRQAPGKGLEYIGIIRSGGTTDYASWAKGRFAISKTSTTVDLKITSPTTEDTATYFCARDPPYITSTYFDLWGQGTLVTVSSGGGGSGGGGSGGGGSGGGGASELVLTQPQSVSGSLGQTVSISCKRARDSVESYDVHWYQQHPGKTPTIVIYKDDQRPSGVPDRFSGSIDSTSNSASLTITGLLAEDEADYFCQSFDGDAVVFGGGTQLTVTG | binds
9 | M0863 scFv (scFv, Rabbit scFv identified by phage display) scFv: PEQLMESGGGLVTPGGVLTLTCTASGFSFSSYGVNWVRQAPGKGLEWIGFIFGDGTTYYANWAKGRFTISKTSTTVDLKMTSPTTEDTATYFCARDGYGGYDYIINLWGQGTLVTVSSGGGGSGGGGSGGGGSGGGGASAQVLTQTPASVSAAVGGTVSISCQSSQSVVNNNWLAWYQQKPGQPPKLLIYKASTLESGVPSRFKGSGSGTQFTLTISGVQADDAATYYCQGAYSGNIYYNAFGGGTEVVVK | binds
10 | M0859 scFv (scFv, Rabbit scFv identified by phage display) scFv: QSVKESGGRLVTPGTPLTLTCTVSGFSLSNYAMSWVRQAPGKGLEYIGIVSSGGTTYYASWAKGRFTISKTSTTVDLKITSPTTEDTATYFCAKDLYYGPTTYSAFNLWGQGTLVTISSGGGGSGGGGSGGGGSGGGGASELVLTQPQSVSGSLGQTVSISCKRARDNIEDYYVHWYQQHPGKTPTIVIHKDDQRPSGVPDRFSGSIDSTSNSASLTITGLLAEDEADYFCQSFDNDASPVFGGGTQLTVTG | binds
11 | M0860 scFv (scFv, Rabbit scFv identified by phage display) scFv: QSVKESGGRLVTPGTPLTLTCTVSGFSLSNYAMSWVRQAPGKGLEYIGIVSSGGTTYYASWAKGRFTISKTSTTVDLKITSPTTEDTATYFCAKDLYYGPTTYSAFNLWGQGTLVTISSGGGGSGGGGSGGGGSGGGGASELVLTQPQSVSGSLGQTVSISCKRARDNIEDYYVHWYQQYPGKTPTIVIYKDDQRPSGVPDRFSGSIDSTSNSASLTITGLLAEDEADYFCQSFDNNANVVFGGGTQLTVTG | binds
12 | M0858 scFv (scFv, Rabbit scFv identified by phage display) scFv: QSVEESGGRLVTPGTPLTLTCTVSGFSLSNYAMSWVRQAPGKGLEYIGIVSSGGTTYYASWAKGRFTISKTSTTVDLKITSPTTEDTATYFCAKDLYYGPTTYSAFNLWGQGTLVTVSSGGGGSGGGGSGGGGSGGGGASELVLTQPQSVSGSLGQTVSISCKRARNNIEDYYVHWYQQHPGRSPTIVIHKDDQRPSGVPDRFSGSIDSTSNSASLTITGLLAEDEADYFCQSFDNNANPVFGGGTQLTVTG | binds
13 | M0853 scFv (scFv, Rabbit scFv identified by phage display) scFv: QQQLVESGGGLVTPGTPLTLTCTVSGFSLSNYAMGWVRQAPGKGLEWIGTINDGGTAFYANWLKGRFTISRTSTTVDLKITSPTTEDTATYFCARAYGSNGDVYWGYFNLWGQGTLVTVSSGGGGSGGGGSGGGGSGGGGASELVMTQTASPVSAAVGGTVTINCQASQSISSRSLSWYQQKPGQPPKLLIYEASKLASGVPSRFSGSGSGTQFTLTISGVQADDAATYYCQQGYSSSNVDNFGGGTEVVVK | binds
14 | M0862 scFv (scFv, Rabbit scFv identified by phage display) scFv: PEQLMESGGGLVTPGGVLTLTCTASGFSFSSYGVNWVRQAPGKGLEWIGFIFGDGTTYYANWAKGRFTISKTSTTVDLKMTSPTTEDTATYFCARDGYGGYDYIINLWGQGTLVTVSSGGGGSGGGGSGGGGSGGGGASAQVLTQTPASVSAAVGGTVSISCQSSQSVVNNNWLAWYQQKPGQPPKLLIYKASTLESGVPSRFKGSGSGTQFTLTISGVQADDAATYYCLGEFSCSSADCHAFGGGTELEIL | binds
15 | M0734 (VHH, Llama-derived VHH) VHH: EVQLVESGGGLVQAGGSLRVSCAASGLTFSNYAMGWFQQAPGKEREFVAGISWSGVSTYYADFVKGRFTISRDNAKNTVYLQMNSLKPEDTAVYYCAADNRRYSRGTSISTWRSDYDYWGQGTQVTVSS | binds
